Experimental data reported in IntAct's records for PubMed 22115042.

Experiments:
[1] = biological target: dock3_mouse Dock3 (UniProt Q8CIQ7)
[2] = biological target: dock3_mouse Dock3 (UniProt Q8CIQ7); remark: listed apart in the source

Chain of Presenilin-2 (Homo sapiens), P49810 N141I (P49810 whole entry N141I): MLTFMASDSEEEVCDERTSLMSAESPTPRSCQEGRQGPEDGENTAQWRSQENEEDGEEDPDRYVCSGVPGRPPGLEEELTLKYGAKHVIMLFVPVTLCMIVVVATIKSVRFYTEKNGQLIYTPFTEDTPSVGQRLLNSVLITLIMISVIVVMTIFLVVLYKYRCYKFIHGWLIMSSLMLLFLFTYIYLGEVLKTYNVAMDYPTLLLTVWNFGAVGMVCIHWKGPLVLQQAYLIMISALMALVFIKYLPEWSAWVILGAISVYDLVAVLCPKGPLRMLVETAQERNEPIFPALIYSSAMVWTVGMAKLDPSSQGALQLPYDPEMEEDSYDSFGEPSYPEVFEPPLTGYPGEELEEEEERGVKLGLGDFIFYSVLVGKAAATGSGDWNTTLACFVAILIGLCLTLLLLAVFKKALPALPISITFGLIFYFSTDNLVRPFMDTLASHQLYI

Substance | effect of a mutation on the interaction [1] | effect of a mutation on the interaction [2]
Presenilin-1 (Homo sapiens) (from UniProt P49768) C410Y | increasing interaction strength | –
Presenilin-1 (Homo sapiens) (from UniProt P49768) M146L | increasing interaction strength | –
Presenilin-2 (Homo sapiens), P49810 N141I | – | with no effect
